Laboratory results: patent KR20200098329A (dated 2020)

Assays:
[1] = biological target: T1, 인간 BAG2 단백질 (human, UniProt O95816 2-211, limits assumed); test: immunoblot on MDA-MB-231 cell lysate
T1 construct: also called BAG2 폴리펩티드; human BAG2

[2] = biological target: T2, GST-Bag Full (GST와 융합된 전장 BAG2 폴리펩티드) (human, UniProt O95816 1-211); test: immunoblot on lysate of HEK293T cells with the GST-Bag Full vector, signal at about 50 kDa
T2 construct: Expressed in HEK293T cells, detected in lysate at about 50 kDa by immunoblot; not shown: GST tag, about 26 kDa, of the pcDNA3.1+/GST vector (NovoPro Bioscience)

[3] = biological target: T1, 인간 BAG2 단백질; test: immunoblot screening of hybridomas

T2 sequence (O95816 whole entry): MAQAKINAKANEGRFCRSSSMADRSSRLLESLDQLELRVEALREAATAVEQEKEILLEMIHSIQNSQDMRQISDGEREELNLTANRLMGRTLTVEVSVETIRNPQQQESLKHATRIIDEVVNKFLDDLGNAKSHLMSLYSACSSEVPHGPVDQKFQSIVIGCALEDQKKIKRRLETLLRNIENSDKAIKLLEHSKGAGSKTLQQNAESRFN
T1 sequence (O95816 2-211 limits assumed): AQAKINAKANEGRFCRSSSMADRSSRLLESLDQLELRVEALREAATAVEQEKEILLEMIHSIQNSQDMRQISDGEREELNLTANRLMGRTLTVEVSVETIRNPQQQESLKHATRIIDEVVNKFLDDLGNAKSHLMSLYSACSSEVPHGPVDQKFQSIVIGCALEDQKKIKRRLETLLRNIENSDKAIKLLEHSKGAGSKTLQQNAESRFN

Binder	binding result [1]	binding result [2]	binding result [3]
3G8 항체 (antibody, V domains shown, Mouse monoclonal antibody from a hybridoma; Biotinylated when used as detecting antibody in the sandwich ELISA; also called 항-BAG2 항체 3G8) VH: QIQLVQSGPELKKPGETVKISCKASGYSFTKYGMNWVKQAPGKDIKWMGWINTNTGEATYGEEVKGRFAFSLETSASTAYLQINNLKNEDTATYFCARLGLRYLDYWGQGTTLTVSS VL: DIVMTQSPASLVVSLGQRATISCRASKSVSTSDYSYMHWYQQKPGQPPKVLIYLASNLESGVPARFSGSGSGTDFTLNIHPVEEEDAATYYCQHNRELPPTFGAGTKLELK	binds	binds	
2A11 항체 (antibody, V domains shown, Mouse monoclonal antibody from a hybridoma; also called 항-BAG2 항체 2A11) VH: QVQLQQPGAELVRPGASVTLSCKASGYTFTDYEMHWVKQTPVHGLEWIGIIDPETGGTAYNQKFKGKATLTADKSSSTAYMELRSLTSEDSAVYYCTRGKFYYSGRDYAMDYWGQGTSVTVSS VL: DVLMTQTPLSLPVSLGDQASISCRSSQSIVHSNGNTYLEWYLQKPGQSPKLLIYKVSNRFSGVPDRFSGSGSGTDFTLKISRVEAEDLGVYFCFQGSQVPPTFGGGTKLEIK		binds	binds
8C4 항체 (antibody, V domains shown, Mouse monoclonal antibody from a hybridoma; also called 항-BAG2 항체 8C4) VH: QVQLQQPGAELVRPGASVTLSCKASGYTFTDYEMHWVKQTPVHGLEWIGIIDPETAGTAYNQKFKGKATLTADKSSSTAYMELRSLTSEDSAVYYCTRGKFYYSGRDYAMDYWGQGTSVTVSS VL: DVLMTQTPLSLPVSLGDQASISCRSSQSIVHSNGNTYLEWYLQKPGQSPKLLFYKVSNRFSGVPDRFSGSGSGTDFTLKISRVEAEDLGVYFCFQGSQVPPTFGGGTKLEIK	binds	binds	
4C2 항체 (antibody, V domains shown, Mouse monoclonal antibody from a hybridoma; also called 항-BAG2 항체 4C2) VH: QVQLQQPGAELVRPGASVTLSCKASGYTFTDYEMHWVKQTPVHGLEWIGIIDPETGATAYNQKFKGKATLTADKSSSTAYMELRSLTSEDSAVYYCTRGKFYYSGRDYAMDYWGQGTSVTVSS VL: DVLMTQTPLSLPVSLGDQASISCRSSQSIVHSNGNTYLEWYLQKPGQSPKLLFYKVSNRFSGVPDRFSGSGSGTDFTLKISRVEAEDLGVYFCFQGSQVPPTFGGGTKLEIK	binds	binds	
3F12 항체 (antibody, V domains shown, Mouse monoclonal antibody from a hybridoma; Biotinylated when used as detecting antibody in the sandwich ELISA; also called 항-BAG2 항체 3F12) VH: QVQLQESGPDLVKPSQSLSLTCTVTGYSITSGYSWHWIRQFPGNKLEWMGYIYYRGSTNYNPSLKSRISITRDTSKNQFFLLLKSVTTEDTATYYCAREAYWGQGTLVTVSA VL: not shown		binds	binds
